According to patent publication US20200157174A1 (DRAGONFLY THERAPEUTICS, published 2020):
Changes are numbered by the printed parent chain. Blank lines part the entries; values can stand above or below the binder they belong to.

Tests used:
Assay in all cases: ELISA on coated NKG2D-Fc;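 also: titrated NKG2D-binding domains on plate-bound human, mouse or cynomolgus NKG2D ectodomain–human IgG1 Fc fusions, detected with HRP anti-human kappa secondary and TMB, absorbance at 450 nm corrected at 540 nm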
[1] = biological target: T1, recombinant human NKG2D-Fc (human, UniProt P26718 73-216)
T1 construct: extracellular domain; also called human NKG2D-Fc fusion protein; NKG2D-Fc-biotin; not shown: human IgG1 Fc domain
T1 sequence (looked up): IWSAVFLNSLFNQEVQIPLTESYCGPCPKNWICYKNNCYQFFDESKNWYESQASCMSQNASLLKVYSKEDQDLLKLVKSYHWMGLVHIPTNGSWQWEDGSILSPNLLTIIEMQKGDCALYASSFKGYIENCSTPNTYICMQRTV

[2] = biological target: T2, recombinant cynomolgus NKG2D-Fc (cynomolgus; human, UniProt P61252 73-216)
T2 construct: extracellular domain; also called cynomolgus NKG2D-Fc fusion protein; not shown: human IgG1 Fc domain
T2 sequence (looked up): T1 sequence (looked up) with D43N, T133I

[3] = biological target: T3, recombinant mouse NKG2D-Fc (mouse; human, UniProt O54709 90-232)
T3 construct: extracellular domain; also called mouse NKG2D-Fc fusion protein; Mouse NKG2D-Fc-biotin; not shown: human IgG1 Fc domain
T3 sequence (looked up): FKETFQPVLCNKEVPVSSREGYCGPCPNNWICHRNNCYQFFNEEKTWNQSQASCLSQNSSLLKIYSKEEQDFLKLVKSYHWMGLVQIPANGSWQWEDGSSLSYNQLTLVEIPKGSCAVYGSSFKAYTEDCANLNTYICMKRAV

binding result [1]: binds
binding result [2]: binds
binding result [3]: binds
B1: ADI-27705 (antibody, V domains shown)
VH: QVQLQQWGAGLLKPSETLSLTCAVYGGSFSGYYWSWIRQPPGKGLEWIGEIDHSGSTNYNPSLKSRVTISVDTSKNQFSLKLSSVTAADTAVYYCARARGPWSFDPWGQGTLVTVSS
VL: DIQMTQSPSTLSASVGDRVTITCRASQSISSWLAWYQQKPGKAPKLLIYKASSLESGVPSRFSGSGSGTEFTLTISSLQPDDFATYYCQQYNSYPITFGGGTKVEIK

binding result [1]: binds
binding result [2]: binds
binding result [3]: binds
B2: ADI-29403 (antibody, V domains shown)
VH: B1 VH
VL: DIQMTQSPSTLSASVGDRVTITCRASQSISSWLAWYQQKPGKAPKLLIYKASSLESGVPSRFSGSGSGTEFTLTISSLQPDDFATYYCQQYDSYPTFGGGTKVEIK

binding result [1]: binds
binding result [2]: binds
binding result [3]: binds
B3: ADI-29407 (antibody, V domains shown)
VH: B1 VH
VL: DIQMTQSPSTLSASVGDRVTITCRASQSISSWLAWYQQKPGKAPKLLIYKASSLESGVPSRFSGSGSGTEFTLTISSLQPDDFATYYCQQYQSFPTFGGGTKVEIK

binding result [1]: binds
binding result [2]: binds
binding result [3]: binds
B4: ADI-29405 (antibody, V domains shown)
VH: B1 VH
VL: B3 VL with Q92G

binding result [1]: binds
binding result [2]: binds
binding result [3]: binds
B5: ADI-29404 (antibody, V domains shown)
VH: B1 VH
VL: B3 VL with Q89E, Q92D, F94Y
notes: also called F04

binding result [1]: binds
binding result [2]: binds
binding result [3]: binds
B6: ADI-29426 (antibody, V domains shown)
VH: B1 VH
VL: B3 VL with S30G, Q92H

binding result [1]: binds
binding result [2]: binds
binding result [3]: binds
B7: ADI-27740 (antibody, V domains shown)
VH: B1 VH
VL: B3 VL with S30G, Q92H, P95Y
notes: also called A40

binding result [1]: binds
binding result [2]: binds
binding result [3]: binds
B8: ADI-29421 (antibody, V domains shown)
VH: B1 VH
VL: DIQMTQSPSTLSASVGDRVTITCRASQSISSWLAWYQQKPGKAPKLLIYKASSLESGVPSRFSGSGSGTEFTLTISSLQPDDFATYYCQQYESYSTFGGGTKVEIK

binding result [1]: binds
binding result [2]: binds
binding result [3]: binds
B9: ADI-29419 (antibody, V domains shown)
VH: B1 VH
VL: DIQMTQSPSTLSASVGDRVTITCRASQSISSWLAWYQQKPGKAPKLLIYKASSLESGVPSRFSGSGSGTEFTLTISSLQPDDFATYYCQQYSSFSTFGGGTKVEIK

binding result [1]: binds
binding result [2]: binds
binding result [3]: binds
B10: ADI-27741 (antibody, V domains shown)
VH: B1 VH
VL: B3 VL with S30G, Y91S, Q92N, F94Y, P95Y

binding result [1]: binds
binding result [2]: binds
binding result [3]: binds
B11: ADI-29429 (antibody, V domains shown)
VH: B1 VH
VL: DIQMTQSPSTLSASVGDRVTITCRASQSIGSWLAWYQQKPGKAPKLLIYKASSLESGVPSRFSGSGSGTEFTLTISSLQPDDFATYYCQQYELYSYTFGGGTKVEIK

binding result [1]: binds
binding result [2]: binds
binding result [3]: binds
B12: ADI-29425 (antibody, V domains shown)
VH: B1 VH
VL: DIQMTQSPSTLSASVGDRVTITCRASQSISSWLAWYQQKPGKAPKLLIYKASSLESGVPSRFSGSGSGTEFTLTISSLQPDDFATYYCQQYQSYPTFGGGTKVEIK

binding result [1]: binds
binding result [2]: binds
binding result [3]: binds
B13: ADI-29424 (antibody, V domains shown)
VH: B1 VH
VL: B3 VL with Q92D, P95I

binding result [1]: binds
binding result [2]: binds
binding result [3]: binds
B14: ADI-29447 (antibody, V domains shown)
VH: B1 VH
VL: B3 VL with Q92D, S93T, P95I
notes: also called F47

binding result [1]: binds
binding result [2]: binds
binding result [3]: binds
B15: ADI-27743 (antibody, V domains shown)
VH: B1 VH
VL: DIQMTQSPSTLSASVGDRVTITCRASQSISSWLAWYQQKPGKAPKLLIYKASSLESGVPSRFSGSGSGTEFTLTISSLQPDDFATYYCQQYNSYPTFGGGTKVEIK

binding result [1]: binds
binding result [2]: binds
binding result [3]: binds
B16: ADI-29401 (antibody, V domains shown)
VH: B1 VH
VL: B3 VL with S30G, Q92D, S93I, F94Y

binding result [1]: binds
binding result [2]: binds
binding result [3]: binds
B17: ADI-28226 (antibody, V domains shown)
VH: B1 VH
VL: B11 VL with G30S, E92G, L93S, Y94F, S95P, Y96I
notes: also called C26

binding result [1]: binds
binding result [2]: binds
binding result [3]: binds
B18: ADI-29399 (antibody, V domains shown)
VH: B1 VH
VL: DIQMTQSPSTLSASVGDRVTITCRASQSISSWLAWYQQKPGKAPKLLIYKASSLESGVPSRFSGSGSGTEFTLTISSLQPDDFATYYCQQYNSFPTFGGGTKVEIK

binding result [1]: binds
binding result [2]: binds
binding result [3]: binds
B19: ADI-29378 (antibody, V domains shown)
VH: QVQLVQSGAEVKKPGASVKVSCKASGYTFTSYYMHWVRQAPGQGLEWMGIINPSGGSTSYAQKFQGRVTMTRDTSTSTVYMELSSLRSEDTAVYYCAREGAGFAYGMDYYYMDVWGKGTTVTVSS
VL: EIVLTQSPATLSLSPGERATLSCRASQSVSSYLAWYQQKPGQAPRLLIYDASNRATGIPARFSGSGSGTDFTLTISSLEPEDFAVYYCQQSDNWPFTFGGGTKVEIK
notes: also called E78

binding result [1]: binds
binding result [2]: binds
binding result [3]: binds
B20: ADI-27749 (antibody, V domains shown)
VH: EVQLVESGGGLVKPGGSLRLSCAASGFTFSSYSMNWVRQAPGKGLEWVSSISSSSSYIYYADSVKGRFTISRDNAKNSLYLQMNSLRAEDTAVYYCARGAPMGAAAGWFDPWGQGTLVTVSS
VL: DIQMTQSPSSVSASVGDRVTITCRASQGISSWLAWYQQKPGKAPKLLIYAASSLQSGVPSRFSGSGSGTDFTLTISSLQPEDFATYYCQQGVSFPRTFGGGTKVEIK
notes: also called A49

binding result [1]: binds
binding result [2]: binds
binding result [3]: binds
B21: ADI-27727 (antibody, V domains shown)
VH: QVQLVQSGAEVKKPGSSVKVSCKASGGTFSSYAISWVRQAPGQGLEWMGGIIPIFGTANYAQKFQGRVTITADESTSTAYMELSSLRSEDTAVYYCARGDSSIRHAYYYYGMDVWGQGTTVTVSS
VL: not shown
